Laboratory results published in patent US10450368.

What was measured:
Centromere B [1] = biological target: Centromere B (UniProt P07199); assay: AtheNA, Ab 25 ug/ml
Histones [2] = assay: AtheNA, Ab 25 ug/ml
Jo-1 [3] = biological target: Jo-1 (UniProt P12081); assay: AtheNA, Ab 25 ug/ml
RNP (ribonucleoprotein) [4] = assay: AtheNA, Ab 25 ug/ml
SSA [5] = assay: AtheNA, Ab 25 ug/ml
SSB [6] = biological target: SSB (UniProt P05455); assay: AtheNA, Ab 25 ug/ml
Scl-70 [7] = biological target: Scl-70 (UniProt P11387); assay: AtheNA, Ab 25 ug/ml
Sm (Smith antigen) [8] = assay: AtheNA, Ab 25 ug/ml
Jo-1 [9] = biological target: Jo-1 (UniProt P12081); assay: AtheNA, Ab 50 ug/ml
SSB [10] = biological target: SSB (UniProt P05455); assay: AtheNA, Ab 50 ug/ml
Centromere B [11] = biological target: Centromere B (UniProt P07199); assay: AtheNA, Ab 25 ug/ml; remark: listed apart in the source
Histones [12] = assay: AtheNA, Ab 25 ug/ml; remark: listed apart in the source
Jo-1 [13] = biological target: Jo-1 (UniProt P12081); assay: AtheNA, Ab 25 ug/ml; remark: listed apart in the source
RNP (ribonucleoprotein) [14] = assay: AtheNA, Ab 25 ug/ml; remark: listed apart in the source
SSA [15] = assay: AtheNA, Ab 25 ug/ml; remark: listed apart in the source
SSB [16] = biological target: SSB (UniProt P05455); assay: AtheNA, Ab 25 ug/ml; remark: listed apart in the source
Scl-70 [17] = biological target: Scl-70 (UniProt P11387); assay: AtheNA, Ab 25 ug/ml; remark: listed apart in the source
Sm (Smith antigen) [18] = assay: AtheNA, Ab 25 ug/ml; remark: listed apart in the source
Jo-1 [19] = biological target: Jo-1 (UniProt P12081); assay: AtheNA, Ab 50 ug/ml; remark: listed apart in the source
SSB [20] = biological target: SSB (UniProt P05455); assay: AtheNA, Ab 50 ug/ml; remark: listed apart in the source
Centromere B [21] = biological target: Centromere B (UniProt P07199); assay: AtheNA, Ab 12.5 ug/ml
Histones [22] = assay: AtheNA, Ab 12.5 ug/ml
Jo-1 [23] = biological target: Jo-1 (UniProt P12081); assay: AtheNA, Ab 12.5 ug/ml
RNP (ribonucleoprotein) [24] = assay: AtheNA, Ab 12.5 ug/ml
SSA [25] = assay: AtheNA, Ab 12.5 ug/ml
SSB [26] = biological target: SSB (UniProt P05455); assay: AtheNA, Ab 12.5 ug/ml
Scl-70 [27] = biological target: Scl-70 (UniProt P11387); assay: AtheNA, Ab 12.5 ug/ml
Sm (Smith antigen) [28] = assay: AtheNA, Ab 12.5 ug/ml
Centromere B [29] = biological target: Centromere B (UniProt P07199); assay: AtheNA, Ab 6.25 ug/ml
Histones [30] = assay: AtheNA, Ab 6.25 ug/ml
Jo-1 [31] = biological target: Jo-1 (UniProt P12081); assay: AtheNA, Ab 6.25 ug/ml
RNP (ribonucleoprotein) [32] = assay: AtheNA, Ab 6.25 ug/ml
SSA [33] = assay: AtheNA, Ab 6.25 ug/ml
SSB [34] = biological target: SSB (UniProt P05455); assay: AtheNA, Ab 6.25 ug/ml
Scl-70 [35] = biological target: Scl-70 (UniProt P11387); assay: AtheNA, Ab 6.25 ug/ml
Sm (Smith antigen) [36] = assay: AtheNA, Ab 6.25 ug/ml
CH505.M10D8gp120 = assay: direct-binding ELISA
CH505.M11D8gp120/293F = assay: direct-binding ELISA
CH505.M19D8gp120 = assay: direct-binding ELISA
CH505.M21D8gp120/293F = assay: direct-binding ELISA
CH505.M5D8gp120293F = assay: direct-binding ELISA
CH505.M7D8gp120/293F = assay: direct-binding ELISA
CH505.M9D8gp120/293F = assay: direct-binding ELISA
[37] = biological target: CH505.TF mutant gp120 M20 (HIV-1); assay: direct-binding ELISA
[38] = biological target: CH505.TF mutant gp120 M6 (HIV-1); assay: direct-binding ELISA
[39] = biological target: CH505.TF mutant gp120 M8 (HIV-1); assay: direct-binding ELISA
[40] = biological target: CH505_w137V201B12.D11gp120 (HIV-1); assay: direct-binding ELISA
[41] = biological target: CH505_w137V209C12.D11gp120 (HIV-1); assay: direct-binding ELISA
[42] = biological target: CH505w136.B10D8gp120 (HIV-1); assay: direct-binding ELISA
[43] = biological target: CH505w136.B12D8gp120 (HIV-1); assay: direct-binding ELISA
[44] = biological target: CH505w136.B18D8gp120 (HIV-1); assay: direct-binding ELISA
[45] = biological target: CH505w136.B20D8gp120 (HIV-1); assay: direct-binding ELISA
[46] = biological target: CH505w136.B27D8gp120 (HIV-1); assay: direct-binding ELISA
[47] = biological target: CH505w136.B29D8gp120 (HIV-1); assay: direct-binding ELISA
[48] = biological target: CH505w136.B2D8gp120/293F (HIV-1); assay: direct-binding ELISA
[49] = biological target: CH505w136.B36D8gp120 (HIV-1); assay: direct-binding ELISA
[50] = biological target: CH505w136.B3D8gp120/293F (HIV-1); assay: direct-binding ELISA
[51] = biological target: CH505w136.B4D8gp120 (HIV-1); assay: direct-binding ELISA
[52] = biological target: CH505w136.B5D8gp120 (HIV-1); assay: direct-binding ELISA
[53] = biological target: CH505w136.B8D8gp120 (HIV-1); assay: direct-binding ELISA
[54] = biological target: CH505w160.A1D8gp120 (HIV-1); assay: direct-binding ELISA
[55] = biological target: CH505w160.C11D8gp120 (HIV-1); assay: direct-binding ELISA
[56] = biological target: CH505w160.C12D8gp120 (HIV-1); assay: direct-binding ELISA
[57] = biological target: CH505w160.C14D8gp120 (HIV-1); assay: direct-binding ELISA
[58] = biological target: CH505w160.C2D8gp120 (HIV-1); assay: direct-binding ELISA
[59] = biological target: CH505w160.C4D8gp120 (HIV-1); assay: direct-binding ELISA
[60] = biological target: CH505w160.D1D8gp120 (HIV-1); assay: direct-binding ELISA
[61] = biological target: CH505w160.D5D8gp120/293F (HIV-1); assay: direct-binding ELISA
[62] = biological target: CH505w160.T2D8gp120 (HIV-1); assay: direct-binding ELISA
[63] = biological target: CH505w160.T4D8gp120/293F (HIV-1); assay: direct-binding ELISA

Sequence of Centromere B (P07199 whole entry): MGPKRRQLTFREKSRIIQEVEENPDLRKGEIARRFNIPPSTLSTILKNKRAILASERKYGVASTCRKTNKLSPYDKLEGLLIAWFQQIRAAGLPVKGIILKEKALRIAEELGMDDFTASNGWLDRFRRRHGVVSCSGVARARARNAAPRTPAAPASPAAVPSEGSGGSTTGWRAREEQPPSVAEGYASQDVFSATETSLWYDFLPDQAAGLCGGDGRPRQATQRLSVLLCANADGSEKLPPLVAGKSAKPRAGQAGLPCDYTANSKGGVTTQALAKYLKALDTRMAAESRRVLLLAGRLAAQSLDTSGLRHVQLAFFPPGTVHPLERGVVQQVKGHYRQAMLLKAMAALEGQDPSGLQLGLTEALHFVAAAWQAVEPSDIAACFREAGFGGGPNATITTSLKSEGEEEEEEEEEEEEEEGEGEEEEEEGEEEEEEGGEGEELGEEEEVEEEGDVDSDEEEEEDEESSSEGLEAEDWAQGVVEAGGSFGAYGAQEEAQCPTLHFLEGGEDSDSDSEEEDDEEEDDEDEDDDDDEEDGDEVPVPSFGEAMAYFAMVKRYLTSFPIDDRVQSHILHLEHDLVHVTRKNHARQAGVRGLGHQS
Sequence of SSB (P05455 whole entry): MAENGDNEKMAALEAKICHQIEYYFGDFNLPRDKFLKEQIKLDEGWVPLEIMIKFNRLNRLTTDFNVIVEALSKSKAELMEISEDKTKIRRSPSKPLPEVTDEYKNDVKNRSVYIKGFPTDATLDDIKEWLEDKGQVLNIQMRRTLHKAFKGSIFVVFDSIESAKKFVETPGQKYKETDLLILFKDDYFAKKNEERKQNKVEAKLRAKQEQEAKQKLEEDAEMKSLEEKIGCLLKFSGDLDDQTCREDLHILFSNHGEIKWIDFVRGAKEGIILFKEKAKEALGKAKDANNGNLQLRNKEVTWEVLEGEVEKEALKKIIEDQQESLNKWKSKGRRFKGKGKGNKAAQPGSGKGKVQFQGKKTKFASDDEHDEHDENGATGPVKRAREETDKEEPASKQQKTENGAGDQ
Sequence of Scl-70 (P11387 whole entry): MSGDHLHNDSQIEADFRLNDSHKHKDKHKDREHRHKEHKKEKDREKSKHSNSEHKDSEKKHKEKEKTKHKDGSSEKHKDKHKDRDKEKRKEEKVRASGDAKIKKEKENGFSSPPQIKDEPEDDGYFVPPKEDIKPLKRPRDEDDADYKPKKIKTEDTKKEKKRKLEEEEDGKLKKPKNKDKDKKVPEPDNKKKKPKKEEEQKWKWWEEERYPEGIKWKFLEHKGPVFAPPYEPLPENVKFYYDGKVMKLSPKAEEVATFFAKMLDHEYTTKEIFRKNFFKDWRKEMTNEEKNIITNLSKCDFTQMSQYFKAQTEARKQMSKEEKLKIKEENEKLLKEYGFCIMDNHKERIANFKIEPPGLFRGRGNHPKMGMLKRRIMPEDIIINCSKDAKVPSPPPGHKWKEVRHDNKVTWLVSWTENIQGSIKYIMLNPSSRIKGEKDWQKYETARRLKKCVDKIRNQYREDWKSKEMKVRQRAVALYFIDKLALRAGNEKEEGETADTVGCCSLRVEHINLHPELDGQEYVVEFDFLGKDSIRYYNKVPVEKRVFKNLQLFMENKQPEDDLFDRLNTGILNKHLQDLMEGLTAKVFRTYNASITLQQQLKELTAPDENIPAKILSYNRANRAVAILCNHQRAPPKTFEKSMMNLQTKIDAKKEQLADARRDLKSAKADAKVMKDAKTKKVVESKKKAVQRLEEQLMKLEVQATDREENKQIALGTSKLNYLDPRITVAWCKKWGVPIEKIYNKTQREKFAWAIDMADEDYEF
Sequence of Jo-1 (P12081 whole entry): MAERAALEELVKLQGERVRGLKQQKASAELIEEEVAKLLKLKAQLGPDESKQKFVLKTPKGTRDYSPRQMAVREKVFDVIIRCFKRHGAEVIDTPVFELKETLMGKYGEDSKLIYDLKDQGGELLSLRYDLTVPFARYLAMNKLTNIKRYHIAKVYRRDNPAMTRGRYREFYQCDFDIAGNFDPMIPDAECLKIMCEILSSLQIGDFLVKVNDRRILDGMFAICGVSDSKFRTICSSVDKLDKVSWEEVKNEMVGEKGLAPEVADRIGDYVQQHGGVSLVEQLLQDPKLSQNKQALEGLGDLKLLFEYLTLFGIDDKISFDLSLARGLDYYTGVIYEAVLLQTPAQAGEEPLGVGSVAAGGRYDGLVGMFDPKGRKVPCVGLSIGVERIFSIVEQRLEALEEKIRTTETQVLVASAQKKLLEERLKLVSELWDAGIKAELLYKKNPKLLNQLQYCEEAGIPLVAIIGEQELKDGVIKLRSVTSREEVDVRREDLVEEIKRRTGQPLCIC

4E10 (antibody) was tested, and the AtheNA signal (relative luminescence units) (Centromere B [1]) was 3, the AtheNA signal (relative luminescence units) (Histones [2]) was 10 and the AtheNA signal (relative luminescence units) (Jo-1 [3]) was 160. It also gave an AtheNA signal (relative luminescence units) (RNP (ribonucleoprotein) [4]) of 3, an AtheNA signal (relative luminescence units) (SSA [5]) of 33 and an AtheNA signal (relative luminescence units) (SSB [6]) of 227. It also gave an AtheNA signal (relative luminescence units) (Scl-70 [7]) of 1, an AtheNA signal (relative luminescence units) (Sm (Smith antigen) [8]) of 2 and an AtheNA signal (relative luminescence units) (Jo-1 [9]) of 190. The AtheNA signal (relative luminescence units) (SSB [10]) was 263, the AtheNA signal (relative luminescence units) (Centromere B [11]) was 9 and the AtheNA signal (relative luminescence units) (Histones [12]) was 24. It also gave an AtheNA signal (relative luminescence units) (Jo-1 [13]) of 206, an AtheNA signal (relative luminescence units) (RNP (ribonucleoprotein) [14]) of 20 and an AtheNA signal (relative luminescence units) (SSA [15]) of 81. For the same substance, the AtheNA signal (relative luminescence units) (SSB [16]) was 189, the AtheNA signal (relative luminescence units) (Scl-70 [17]) was 4 and the AtheNA signal (relative luminescence units) (Sm (Smith antigen) [18]) was 46. The AtheNA signal (relative luminescence units) (Jo-1 [19]) was 227, the AtheNA signal (relative luminescence units) (SSB [20]) was 207 and the AtheNA signal (relative luminescence units) (Centromere B [21]) was 1. The AtheNA signal (relative luminescence units) (Histones [22]) was 7, the AtheNA signal (relative luminescence units) (Jo-1 [23]) was 131 and the AtheNA signal (relative luminescence units) (RNP (ribonucleoprotein) [24]) was 3. For the same substance, the AtheNA signal (relative luminescence units) (SSA [25]) was 21, the AtheNA signal (relative luminescence units) (SSB [26]) was 199 and the AtheNA signal (relative luminescence units) (Scl-70 [27]) was 0. It also gave an AtheNA signal (relative luminescence units) (Sm (Smith antigen) [28]) of 3, an AtheNA signal (relative luminescence units) (Centromere B [29]) of 2 and an AtheNA signal (relative luminescence units) (Histones [30]) of 6. For the same substance, the AtheNA signal (relative luminescence units) (Jo-1 [31]) was 113, the AtheNA signal (relative luminescence units) (RNP (ribonucleoprotein) [32]) was 3 and the AtheNA signal (relative luminescence units) (SSA [33]) was 17. The AtheNA signal (relative luminescence units) (SSB [34]) was 178, the AtheNA signal (relative luminescence units) (Scl-70 [35]) was 1 and the AtheNA signal (relative luminescence units) (Sm (Smith antigen) [36]) was 3.

In the case of CH248 (antibody), the LogAUC (CH505.M10D8gp120) is reported as 13.8, the LogAUC (CH505.M11D8gp120/293F) is reported as 13.6 and the LogAUC (CH505.M19D8gp120) is reported as 13.2. For the same substance, the LogAUC (CH505.M21D8gp120/293F) was 13.8, the LogAUC (CH505.M5D8gp120293F) was 11 and the LogAUC (CH505.M7D8gp120/293F) was 12.4. It also gave a LogAUC (CH505.M9D8gp120/293F) of 13, a LogAUC [37] of 13.2 and a LogAUC [38] of 13.6. For the same substance, the LogAUC [39] was 12.3, the LogAUC [40] was 13.4 and the LogAUC [41] was 14.7. For the same substance, the LogAUC [42] was 11.5, the LogAUC [43] was 12.9 and the LogAUC [44] was 14.3. It also gave a LogAUC [45] of 12.9, a LogAUC [46] of 12.9 and a LogAUC [47] of 12.3. For the same substance, the LogAUC [48] was 13.4, the LogAUC [49] was 14.4 and the LogAUC [50] was 14. For the same substance, the LogAUC [51] was 13.4, the LogAUC [52] was 14.6 and the LogAUC [53] was 12.3. For the same substance, the LogAUC [54] was 8.62, the LogAUC [55] was 10.7 and the LogAUC [56] was 12.9. It also gave a LogAUC [57] of 10.3, a LogAUC [58] of 11.1 and a LogAUC [59] of 10.5. It also gave a LogAUC [60] of 8.75, a LogAUC [61] of 7.84 and a LogAUC [62] of 8.34. The LogAUC [63] was 13.5.
